Test results: paper PMC5345052, “Auto-phosphorylation Represses Protein Kinase R Activity” (Scientific Reports, 2017)
Numbering of substitutions follows the chain as printed. Numbers in names are those of the source. Blank lines part the entries; values can stand above or below the molecule they belong to.

Experiments:
[1] = target: truncated PKR kinase domain with N-terminal split Venus V2 tag (UniProt P19525); assay: split Venus fluorescence complementation in HEK293 cells; conditions: 20 ng/well of each plasmid construct, read off a plot
[2] = target: truncated phosphor-transfer mutant PKR kinase domain (KD-K296R) with N-terminal split Venus V2 tag (UniProt P19525); assay: as above; conditions: 20 ng/well of each plasmid construct; partner kinase domain carries K296R; n = 5; parent: est. 3.0; read off a plot
[3] = target: PKR RNA-binding domain with C-terminal split Venus V1 tag; assay: as above; conditions: 20 ng/well of each plasmid construct; n = 5; parent: est. 2.9; read off a plot
[4] = target: T1, truncated phosphor-transfer mutant PKR kinase domain (KD-K296R) with N-terminal split Venus V2 tag, P19525; assay: as above; conditions: chain shown with the change; 20 ng/well of full-length PKR and 30 ng/well of the truncated KD; partner kinase domain carries K296R; n = 7; parent: est. 4.2; read off a plot
T1 chain: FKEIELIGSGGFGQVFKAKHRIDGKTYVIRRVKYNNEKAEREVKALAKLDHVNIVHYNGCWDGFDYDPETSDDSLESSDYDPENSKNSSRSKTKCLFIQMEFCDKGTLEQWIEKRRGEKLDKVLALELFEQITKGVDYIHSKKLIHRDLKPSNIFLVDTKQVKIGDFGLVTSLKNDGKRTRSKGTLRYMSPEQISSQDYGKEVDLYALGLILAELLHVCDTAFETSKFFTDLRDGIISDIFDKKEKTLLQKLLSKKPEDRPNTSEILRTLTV

[5] = target: T2, kinase-dead PKR (K296R), recombinant His-tagged full-length protein kinase R (human), P19525; assay: liquid chromatography; recombinant PKR isolated during purification as separate monomer and dimer species; conditions: remark: other sources report otherwise
T2 chain: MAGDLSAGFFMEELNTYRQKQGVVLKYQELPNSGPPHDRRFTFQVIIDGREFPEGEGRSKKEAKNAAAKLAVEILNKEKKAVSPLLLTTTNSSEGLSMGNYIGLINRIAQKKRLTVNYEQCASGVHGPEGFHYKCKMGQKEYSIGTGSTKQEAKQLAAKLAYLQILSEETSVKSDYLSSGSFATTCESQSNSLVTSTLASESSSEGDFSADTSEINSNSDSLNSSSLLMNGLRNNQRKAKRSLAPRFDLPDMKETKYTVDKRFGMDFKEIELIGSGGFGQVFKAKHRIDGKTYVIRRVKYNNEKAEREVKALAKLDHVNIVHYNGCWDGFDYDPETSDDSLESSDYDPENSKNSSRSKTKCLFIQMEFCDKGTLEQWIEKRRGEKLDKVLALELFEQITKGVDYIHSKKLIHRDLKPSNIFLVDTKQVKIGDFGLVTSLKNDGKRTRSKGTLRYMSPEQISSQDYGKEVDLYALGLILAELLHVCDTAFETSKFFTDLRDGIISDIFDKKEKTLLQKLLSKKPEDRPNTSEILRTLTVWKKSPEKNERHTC

[6] = target: the molecule itself; assay: as above
[7] = 5 μM 2-aminopurine (2AP), n = 6, parent: est. 3.8

Molecule: PKR RNA-binding domain with C-terminal split Venus V1 tag S33E; T42E
response [1, 7]: 3.1
response ([1]; n = 7, parent: est. 2.9): 2.5
response [2]: 2.6

Molecule: PKR RNA-binding domain with C-terminal split Venus V1 tag S33A; T42A
response [1, 7]: 4.3
response ([1]; n = 7, parent: est. 2.9): 2.9
response [2]: 3.5

B1: full-length PKR with N-terminal split Venus V1 tag, P19525 H37R; S33A; T42A (protein)
chain: T2 chain with S33A, H37R, T42A, R296K
response [4]: 21

B4: full-length PKR with N-terminal split Venus V1 tag, P19525 K261D (protein)
chain: T2 chain with K261D, R296K
response [4]: 3.4

B5: full-length PKR with N-terminal split Venus V1 tag, P19525 H37R (protein)
chain: T2 chain with H37R, R296K
response [4]: 3.8

B7: full-length PKR with N-terminal split Venus V1 tag, P19525 H37R; S33E; T42E (protein)
chain: T2 chain with S33E, H37R, T42E, R296K
response [4]: 3.1

B9: PKR K296R-S33E-T42E, recombinant His-tagged full-length protein kinase R (enzyme, human, UniProt P19525 1-551, looked up)
chain: T2 chain with S33E, T42E
notes: protein kinase R (PKR), human, full-length molecule with K296R and the phosphor-mimetic S33E and T42E; also called triple mutant; source: isolated by liquid chromatography as monomer and as dimer
stoichiometry N [6]: 2

Other lines, results leading:

response [3]: 3
Molecule: truncated PKR kinase domain with N-terminal split Venus V2 tag (from UniProt P19525) K296R

response [4]: 13
B2: full-length PKR with N-terminal split Venus V1 tag, P19525 R262D (protein)
chain: T2 chain with R262D, R296K

response [4]: 3.6
B3: full-length PKR with N-terminal split Venus V1 tag, P19525 S33E; T42E; K261D (protein)
chain: T2 chain with S33E, T42E, K261D, R296K

response [4]: 12
B6: full-length PKR with N-terminal split Venus V1 tag, P19525 S33E; T42E; R262D (protein)
chain: T2 chain with S33E, T42E, R262D, R296K

stoichiometry N [5]: 2
B8: kinase-dead PKR (K296R), recombinant His-tagged full-length protein kinase R, P19525 1-551 (enzyme)
chain: T2 chain
